The source of these data is patent publication US20260152573A1 (ARGENX, published 2026).

Assay [1] addresses T1, human serum albumin (human, UniProt P02768 25-609).
T1 construct: Immobilised on SPR chips; also added in solution in the FcRn occupancy assays; also called HSA; humanSA
Description: SPR Biacore 8K+ SCK, albumin on chip, pH 7.4. In general terms: Surface plasmon resonance follows binding to a sensor surface in real time, without labels.

Assay [2] deals with T2, cynomolgus monkey serum albumin (cynomolgus monkey, UniProt A2V9Z4 25-608).
T2 construct: Immobilised on SPR chips; also called cynoSA; cynomolgus albumin
Description: SPR Biacore 8K+ SCK, albumin on chip, pH 7.4.

Assay [3] addresses T1, human serum albumin. The assay can be described thus: SPR Biacore 8K+ SCK, albumin on chip, pH 5.5.
The target in assay [4] is T2, cynomolgus monkey serum albumin. The assay can be described thus: SPR Biacore 8K+ SCK, albumin on chip, pH 5.5.
Assay [5] shares this target. The assay can be described thus: SPR Biacore 8K+ SCK, albumin on chip, pH 7.4. The source holds these as a separate data set.
Assay [6] deals with T1, human serum albumin. Description: SPR Biacore 8K+ SCK, albumin on chip, pH 7.4; pH 7.4.
Assay [7] addresses T3, neonatal Fc receptor (FcRn), endogenous in U937 cells (human, UniProt P55899 24-365; P61769 21-119).
T3 construct: whole, on cells; Free FcRn was stained intracellularly after fixation and permeabilisation
The assay can be described thus: FcRn occupancy, FACS, U937 cells, with albumin.
Description: (§1) Next, FcRn occupancy was tested using a cell-based FcRn occupancy assay in the presence or absence of albumin. […] Cells (HEK FcRn mut or U937) were plated in a 96-well microplate. Cells were incubated with test article for two hours, shaking at 37° C., pH 7.4 in FACS buffer. Plates were then transferred immediately on ice and cells were collected by centrifugation at 4° C. Cells stained for viability in FACS buffer at pH 6 and then fixed/permeabilized in permeabilization buffer at pH 6. […] Cells were analyzed by FACS, ensuring that they are kept on ice until immediately prior to analysis.

Assay [8] addresses T3, neonatal Fc receptor (FcRn), endogenous …. Description: FcRn occupancy, FACS, U937 cells, without albumin.
Description: as §1
For assay [9], the target named is T2, cynomolgus monkey serum albumin. The assay can be described thus: screening by ELISA/Biacore. In general terms: ELISA stands for enzyme-linked immunosorbent assay.
The target in the next assay is T4, mouse serum albumin (mouse, UniProt P07724 25-608).
T4 construct: Immobilised on SPR chips; also called mouseSA; MSA
The assay can be described thus: screening by ELISA/Biacore.

Assay [10] addresses T5, isolated domain II of serum albumin (UniProt P02768 213-409, limits assumed).
T5 construct: domain: DII; also called isolated DII
Description: screening by ELISA/Biacore.

Assay [11] has as its target T3, neonatal Fc receptor (FcRn), endogenous …. Description: cell-based FcRn occupancy assay on U937 cells, flow cytometry; free FcRn stained with anti-FcRn-Fab AF647. A general note: Flow cytometry measures light scatter and fluorescence of single cells or particles in a stream.
The target of assay [12] is T1, human serum albumin. The assay can be described thus: SPR (Biacore), albumin binding at pH 5.5 and pH 7.4; concentration not given; the legend says only albumin, the example names albumin coated and construct flown over.

T3 sequence (P55899 24-365 limits assumed, chain 1 of 2): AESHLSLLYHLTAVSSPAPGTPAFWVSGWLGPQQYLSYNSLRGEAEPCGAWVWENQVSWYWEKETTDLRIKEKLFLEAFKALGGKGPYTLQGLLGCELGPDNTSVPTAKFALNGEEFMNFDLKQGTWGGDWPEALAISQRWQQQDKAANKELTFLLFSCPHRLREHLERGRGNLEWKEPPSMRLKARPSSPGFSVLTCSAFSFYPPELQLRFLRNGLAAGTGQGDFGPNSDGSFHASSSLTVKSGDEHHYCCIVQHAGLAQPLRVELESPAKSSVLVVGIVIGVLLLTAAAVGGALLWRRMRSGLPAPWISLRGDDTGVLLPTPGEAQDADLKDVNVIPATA
T3 sequence (P61769 21-119 limits assumed, chain 2 of 2): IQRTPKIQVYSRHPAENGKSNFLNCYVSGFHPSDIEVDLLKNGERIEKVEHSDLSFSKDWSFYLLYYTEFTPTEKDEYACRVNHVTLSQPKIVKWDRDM

B1: Alb23 (VHH)
VHH: EVQLLESGGGLVQPGGSLRLSCAASGFTFRSFGMSWVRQAPGKGPEWVSSISGSGSDTLYADSVKGRFTISRDNSKNTLYLQMNSLRPEDTAVYYCTIGGSLSRSSQGTLVTVSS
notes: VHH alone, injected in solution; also called VHH-Alb23_Parental (#1); Alb23 parental
In general, Kd refers to the equilibrium constant for the complex coming apart. Turning to B1, the Kd in the assay with human serum albumin [1] worked out at 2.37 nM; in assay [2] it was 2.68 nM; with human serum albumin [3], 1.42 nM; in assay [4] it was 1.32 nM; in assay [5], 2.68 nM; with human serum albumin [6], 2.37 nM.

B2: TA-Alb23-Fc-ABDEG (Fc fusion)
chain: EVQLLESGGGLVQPGGSLRLSCAASGFTFRSFGMSWVRQAPGKGPEWVSSISGSGSDTLYADSVKGRFTISRDNSKNTLYLQMNSLRPEDTAVYYCTIGGSLSRSSQGTLVTVSSDKTHTCPPCPAPELLGGPSVFLFPPKPKDTLYITREPEVTCVVVDVSHEDPEVKFNWYVDGVEVHNAKTKPREEQYNSTYRVVSVLTVLHQDWLNGKEYKCKVSNKALPAPIEKTISKAKGQPREPQVYTLPPSRDELTKNQVSLTCLVKGFYPSDIAVEWESNGQPENNYKTTPPVLDSDGSFFLYSKLTVDKSRWQQGNVFSCSVMHEALKFHYTQKSLSLSPG
notes: Two Alb23 VHH fragments at the N-termini of both Fc domains of efgartigimod; also called two-armed N-terminal anti-HSA-Fc-ABDEG
What is called IC50 is the concentration at which inhibition is half-maximal. As to B2, in assay [7], the “% max occupancy” value was 39.1% and the half-maximal inhibitory concentration (IC50) stood at 389 nM. Moreover, the IC50 in assay [8] is 7.5 nM.

B3: 2H11 (VHH)
VHH: ELQVVESGGGLVQAGGSLRLSCAASGRTFRSNTMGWFRQAPGKEREFVAAITWSGGTTYYADSVKGRFAISGDNAKNTVYLQMNSLKPEDTAVYYCAAEGPKWEPWNGIYHPADFGSWGQGTQVTVSS
notes: Clone from llama phage display libraries; also called 2H11 parental VHH; clone 2H11
Regarding B3, the binding result (in assay [9]; with mouse serum albumin; in assay [10]) was “no binding” in each case.

B4: mAb37-OA-ABDEG (antibody, human IgG1, kappa)
heavy: QVQLVQSGAEVMKPGSSVKVSCKASGYTFSWYHLEWVRQAPGHGLEWMGEIDPGTFTTNYNEKFKARVTFTADTSTSTAYMELSSLRSEDTAVYYCARFSHFSGSNHDYFDYWGQGTLVTVSSASTKGPSVFPLAPSSKSTSGGTAALGCLVKDYFPEPVTVSWNSGALTSGVHTFPAVLQSSGLYSLSSVVTVPSSSLGTQTYICNVNHKPSNTKVDKKVEPKSCDKTHTCPPCPAPELLGGPSVFLFPPKPKDTLYITREPEVTCVVVDVSHEDPEVKFNWYVDGVEVHNAKTKPREEQYNSTYRVVSVLTVLHQDWLNGKEYKCKVSNKALPAPIEKTISKAKGQPREPQVYTLPPSRDELTKNQVSLWCLVKGFYPSDIAVEWESNGQPENNYKTTPPVLDSDGSFFLYSKLTVDKSRWQQGNVFSCSVMHEALKFHYTQKSLSLSPG
light: EIVMTQSPATLSVSPGERATLSCRASQSIGTNIHWYQQKPGQAPRLLIYYASESISGIPARFSGSGSGTEFTLTISSLQSEDFAVYYCQQSWSWPTTFGGGTKVEIKRTVAAPSVFIFPPSDEQLKSGTASVVCLLNNFYPREAKVQWKVDNALQSGNSQESVTEQDSKDSTYSLSSTLTLSKADYEKHKVYACEVTHQGLSSPVTKSFNRGEC
chain: DKTHTCPPCPAPELLGGPSVFLFPPKPKDTLYITREPEVTCVVVDVSHEDPEVKFNWYVDGVEVHNAKTKPREEQYNSTYRVVSVLTVLHQDWLNGKEYKCKVSNKALPAPIEKTISKAKGQPREPQVYTLPPSRDELTKNQVSLSCAVKGFYPSDIAVEWESNGQPENNYKTTPPVLDSDGSFFLVSKLTVDKSRWQQGNVFSCSVMHEALKFHYTQKSLSLSPG
notes: it is not used here as a chain; also called one-armed NT-mAb37 Fab attached to Fc-ABDEG via natural hinge region
For the molecule B4, the “IC50 (read off the curve)” value in assay [11] is around 1 nM.

B5: OA-Alb23-Fc-ABDEG (Fc fusion)
chain: EVQLLESGGGLVQPGGSLRLSCAASGFTFRSFGMSWVRQAPGKGPEWVSSISGSGSDTLYADSVKGRFTISRDNSKNTLYLQMNSLRPEDTAVYYCTIGGSLSRSSQGTLVTVSSDKTHTCPPCPAPELLGGPSVFLFPPKPKDTLYITREPEVTCVVVDVSHEDPEVKFNWYVDGVEVHNAKTKPREEQYNSTYRVVSVLTVLHQDWLNGKEYKCKVSNKALPAPIEKTISKAKGQPREPQVYTLPPSRDELTKNQVSLWCLVKGFYPSDIAVEWESNGQPENNYKTTPPVLDSDGSFFLYSKLTVDKSRWQQGNVFSCSVMHEALKFHYTQKSLSLSPG
Fc: DKTHTCPPCPAPELLGGPSVFLFPPKPKDTLYITREPEVTCVVVDVSHEDPEVKFNWYVDGVEVHNAKTKPREEQYNSTYRVVSVLTVLHQDWLNGKEYKCKVSNKALPAPIEKTISKAKGQPREPQVYTLPPSRDELTKNQVSLSCAVKGFYPSDIAVEWESNGQPENNYKTTPPVLDSDGSFFLVSKLTVDKSRWQQGNVFSCSVMHEALKFHYTQKSLSLSPG
Regarding B5, in [7], the “% max occupancy” value came to 51.1% and the concentration for half-maximal inhibition (IC50) was determined as 25 nM. Besides, in assay [8], the half-maximal inhibitory concentration (IC50) stood at 8.5 nM.

B6: TA-Fc-ABDEG-Alb23 (Fc fusion)
chain: DKTHTCPPCPAPELLGGPSVFLFPPKPKDTLYITREPEVTCVVVDVSHEDPEVKFNWYVDGVEVHNAKTKPREEQYNSTYRVVSVLTVLHQDWLNGKEYKCKVSNKALPAPIEKTISKAKGQPREPQVYTLPPSRDELTKNQVSLTCLVKGFYPSDIAVEWESNGQPENNYKTTPPVLDSDGSFFLYSKLTVDKSRWQQGNVFSCSVMHEALKFHYTQKSLSLSPGGGGGSGGGGSGGGGSGGGGSEVQLLESGGGLVQPGGSLRLSCAASGFTFRSFGMSWVRQAPGKGPEWVSSISGSGSDTLYADSVKGRFTISRDNSKNTLYLQMNSLRPEDTAVYYCTIGGSLSRSSQGTLVTVSS
notes: also called Fc-ABDEG-Alb23 (two-armed)
For B6, in [7], the “% max occupancy” value is 69.7% and the midpoint of inhibition, the IC50, lay at 14.5 nM. The binding result with human serum albumin [12] is on record as “binds”.
